{"source": "paper PMC4643876", "about": "“Picomolar Inhibition of Plasmepsin V, an Essential Malaria Protease, Achieved Exploiting the Prime Region” (PLoS ONE, 2015)", "key": {"[1]": {"molecular_target": "GFP-tagged Plasmepsin V (PmV-GFP), P. falciparum clone DC6 (Plasmodium falciparum)", "sequence (Q8I6Z5 whole entry)": "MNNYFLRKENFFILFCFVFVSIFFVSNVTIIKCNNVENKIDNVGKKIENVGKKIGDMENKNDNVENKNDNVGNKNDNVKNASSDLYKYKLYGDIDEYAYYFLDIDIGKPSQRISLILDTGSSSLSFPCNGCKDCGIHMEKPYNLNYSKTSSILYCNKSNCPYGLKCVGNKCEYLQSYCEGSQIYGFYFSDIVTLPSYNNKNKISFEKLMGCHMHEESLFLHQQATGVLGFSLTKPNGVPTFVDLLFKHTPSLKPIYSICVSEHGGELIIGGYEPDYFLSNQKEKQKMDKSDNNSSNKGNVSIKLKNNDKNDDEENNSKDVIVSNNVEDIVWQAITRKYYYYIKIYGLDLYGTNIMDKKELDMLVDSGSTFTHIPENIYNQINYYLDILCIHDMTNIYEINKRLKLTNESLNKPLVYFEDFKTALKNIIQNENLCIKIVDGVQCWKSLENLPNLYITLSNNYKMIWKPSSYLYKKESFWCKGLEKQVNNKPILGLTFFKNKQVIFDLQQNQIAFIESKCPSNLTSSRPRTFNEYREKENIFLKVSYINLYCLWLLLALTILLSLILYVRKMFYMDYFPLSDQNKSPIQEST", "test": "enzyme inhibition (fluorogenic substrate cleavage), Ki calculated from IC50; bead-bound PmV-GFP at <=10 pM, 3 uM DABCYL-[…]-EDANS substrate, serial dilution of inhibitor 10 uM to 0.1 pM, 37 C, 50 mM Tris-Maleate pH 6.5, 50 mM NaCl, 0.05% TX-100, 2 mM DTT; Ki from IC50 = Ki (1 + [S]/KM)"}, "[2]": {"molecular_target": "GFP-tagged Plasmepsin V (PmV-GFP), P. falciparum clone DC6 (Plasmodium falciparum)"}}}
{"substance": "Compound 1 (LG20), RL[L~A]EA (peptide)", "values": [{"measurement": "Ki", "setting": "[1]", "value": 0.197, "unit": "nM"}, {"measurement": "IC50 of inhibition of PmV cleavage of the fluorogenic HRPII-PExEl substrate (enzyme pre-mixed with inhibitor)", "setting": "[2]", "value": 0.367, "unit": "nM"}, {"measurement": "IC50 of inhibition of PmV cleavage of the fluorogenic HRPII-PExEl substrate (inhibitor added after the reaction was initiated)", "setting": "[2]", "value": 0.329, "unit": "nM"}]}
